Reference: patent publication US20040018971A1 (published 2004)

B1: Her2/neu.921.F1 (peptide)
peptide: FPYDGIPA
notes: 8-mer analog of the HER2/neu peptide starting at position 921
B2: Her2/neu.921.F1I8 (peptide)
peptide: FPYDGIPI
notes: as for B1
B3: Her2/neu.760.F1, 9-mer (peptide)
peptide: FPKANKEIL
notes: 9-mer analog of the HER2/neu peptide starting at position 760; same label as the 8-mer in r52
B4: Her2/neu.698.F1 (peptide)
peptide: FPLTPSGAM
notes: 9-mer analog of the HER2/neu peptide starting at position 698
B5: Her2/neu.706.I11 (peptide)
peptide: MPNQAQMRILI
notes: 11-mer analog of the HER2/neu peptide starting at position 706
B6: Her2/neu.706.F1, 9-mer (peptide)
peptide: FPNQAQMRI
notes: 9-mer analog of the HER2/neu peptide starting at position 706; same label as the 10-mer in r51
B7: Her2/neu.649.F1, 10-mer (peptide)
peptide: FPLTSIISAV
notes: 10-mer analog of the HER2/neu peptide starting at position 649; same label as the 9-mer in r40
B8: Her2/neu.649.F1I10 (peptide)
peptide: FPLTSIISAI
notes: 10-mer analog of the HER2/neu peptide starting at position 649
B9: Her2/neu.801.I11 (peptide)
peptide: MPYGCLLDHVI
notes: 11-mer analog of the HER2/neu peptide starting at position 801
B10: Her2/neu.649.F1I9 (peptide)
peptide: FPLTSIISI
notes: 9-mer analog of the HER2/neu peptide starting at position 649
B11: Her2/neu.649.F1, 9-mer (peptide)
peptide: FPLTSIISA
notes: 9-mer analog of the HER2/neu peptide starting at position 649; same label as the 10-mer in r43
B12: Her2/neu.779.F1, 8-mer (peptide)
peptide: FPYVSRLL
notes: 8-mer analog of the HER2/neu peptide starting at position 779; same label as the 10-mer in r56
B13: Her2/neu.706.F1, 10-mer (peptide)
peptide: FPNQAQMRIL
notes: 10-mer analog of the HER2/neu peptide starting at position 706; same label as the 9-mer in r49
B14: Her2/neu.884.F1I8 (peptide)
peptide: FPIKWMAI
notes: 8-mer analog of the HER2/neu peptide starting at position 884
B15: Her2/neu.884.F1 (peptide)
peptide: FPIKWMAL
notes: 8-mer analog of the HER2/neu peptide starting at position 884; also called FPIKWMAL
B16: Her2/neu.642.F1 (peptide)
peptide: FPAEQRASPL
notes: 10-mer analog of the HER2/neu peptide starting at position 642
B17: Her2/neu.779.F1, 10-mer (peptide)
peptide: FPYVSRLLGI
notes: 10-mer analog of the HER2/neu peptide starting at position 779; same label as the 8-mer in r55
B18: Her2/neu.701.F1 (peptide)
peptide: FPSGAMPNQI
notes: the label names only F1 though the C-terminus is I
B19: Her2/neu.649.F1I11 (peptide)
peptide: FPLTSIISAVI
notes: 11-mer analog of the HER2/neu peptide starting at position 649
B20: HER2/neu A11 motif peptide, position 745, 10 amino acids (peptide)
peptide: NVKIPVAIKV
notes: Built as this row prints it (length 10); also called HER2/neu 745-754
B21: Her2/neu.669 (AA 9) (peptide)
peptide: VVFGILIKR
notes: synthetic peptide; the 9-mer and the 10-mer carry the same source label Her2/neu.669

Each binder was assayed against T1, HLA-A*0301 (human) (assay: inhibition of 125I-labelled probe peptide binding to purified HLA-A*0301, gel filtration; ratio to standard peptide 941.12 ([..], 11 nM)).
T1 construct: also called HLA-A3

| Binder | relative binding ratio (IC50 of standard peptide / IC50 of test peptide) |
| --- | --- |
| FSPAFDNLY [HER2/neu peptide, position 1213, 9 amino acids] | 0.0002 |

What follows are binders tested against HLA-B*0702 (human) (assay: competition vs 125I-labeled standard peptide, purified HLA).

| Binder | IC50 [nM] |
| --- | --- |
| B1 | 423 |
| B2 | 177 |
| B3 | 6.7 |
| B4 | 2 |
| B5 | 344 |
| B6 | 68 |
| B7 | 220 |
| B8 | 229 |
| B9 | 66 |
| B10 | 212 |
| B11 | 290 |
| B12 | 61 |
| B13 | 81 |
| B14 | 22 |
| B15 | 0.6 |
| B16 | 1.4 |
| B17 | 112 |
| B18 | 229 |

These binders were tested against HLA-B*5401 (human) in the same assay as above.

| Binder | IC50 [nM] |
| --- | --- |
| B1 | 1 |
| B2 | 56 |
| B3 | 77 |
| B4 | 91 |
| B5 | 303 |
| B6 | 4.5 |
| B7 | 1.2 |
| B8 | 3.3 |
| B9 | 7.7 |
| B10 | 1.5 |
| B11 | 1.4 |
| B12 | 172 |
| B13 | 31 |
| B14 | 33 |
| B15 | 40 |
| B19 | 2.2 |
| B16 | 286 |
| B17 | 9.1 |
| B18 | 100 |

The binders below were run against HLA-B*3501 (human) in the same assay as above.

| Binder | IC50 [nM] |
| --- | --- |
| B1 | 206 |
| B2 | 379 |
| B3 | 4500 |
| B4 | 16 |
| B5 | 1800 |
| B6 | 108 |
| B7 | 300 |
| B8 | 327 |
| B9 | 4.2 |
| B10 | 118 |
| B11 | 21 |
| B12 | 600 |
| B13 | 200 |
| B14 | 1140 |
| B15 | 248 |
| B19 | 96 |
| B16 | 248 |
| B17 | 3600 |
| B18 | 6550 |

These binders were tested against HLA-B*5101 (human) in the same assay as above.

| Binder | IC50 [nM] |
| --- | --- |
| B1 | 157 |
| B2 | 10 |
| B3 | 190 |
| B4 | 71 |
| B5 | 37 |
| B7 | 63 |
| B8 | 26 |
| B9 | 2.4 |
| B11 | 663 |
| B12 | 6.9 |
| B13 | 458 |
| B14 | 122 |
| B15 | 306 |
| B19 | 4.6 |
| B16 | 859 |
| B17 | 7.9 |
| B18 | 131 |

The binders below were run against HLA-B*5301 (human) in the same assay as above.

| Binder | IC50 [nM] |
| --- | --- |
| B1 | 6200 |
| B2 | 344 |
| B4 | 1520 |
| B5 | 12 |
| B6 | 18 |
| B7 | 2910 |
| B8 | 194 |
| B9 | 1.9 |
| B10 | 28 |
| B11 | 3000 |
| B12 | 581 |
| B13 | 443 |
| B14 | 930 |
| B15 | 547 |
| B19 | 66 |
| B16 | 8460 |
| B17 | 358 |
| B18 | 775 |

Each binder was assayed against HLA-A*1101 (human) (assay: inhibition of 125I-labelled probe peptide binding to purified HLA-A*1101, gel filtration; relative to standard peptide 940.06).

| Binder | relative binding ratio |
| --- | --- |
| NIQEFAGCKK (also called HER2/neu 360-369) [HER2/neu A11 motif peptide, position 360, 10 amino acids] | 0.0056 ratio (IC50 of standard peptide / IC50 of test peptide) |
| LTLIDTNRSR (also called HER2/neu 181-190) [HER2/neu A11 motif peptide, position 181, 10 amino acids] | 0.0005 ratio (IC50 of standard peptide / IC50 of test peptide) |
| B20 | 0.0007 ratio (IC50 of standard peptide / IC50 of test peptide) |
| QVCTGTDMK (also called HER2/neu 24-32) [HER2/neu A11 motif peptide, position 24, 9 amino acids] | 0.052 ratio (IC50 of standard peptide / IC50 of test peptide) |
| MGDLVDAEEY (also called HER2/neu 1014-1023) [HER2/neu A11 motif peptide, position 1014, 10 amino acids] | 0.0002 ratio (IC50 of standard peptide / IC50 of test peptide) |
| QLVTQLMPY (also called HER2/neu 795-803) [HER2/neu A11 motif peptide, position 795, 9 amino acids] | 0.0039 ratio (IC50 of standard peptide / IC50 of test peptide) |
| LVHRDLAAR (also called HER2/neu 841-849) [HER2/neu A11 motif peptide, position 841, 9 amino acids] | 0.0014 ratio (IC50 of standard peptide / IC50 of test peptide) |
| PASPLDSTFY (also called HER2/neu 996-1005) [HER2/neu A11 motif peptide, position 996, 10 amino acids] | 0.0001 ratio (IC50 of standard peptide / IC50 of test peptide) |
| PLTCSPQPEY [HER2/neu A11 motif peptide, position 1130, 10 amino acids] | 0.0002 ratio (IC50 of standard peptide / IC50 of test peptide) |
| MALESILRRR (also called HER2/neu 889-898) [HER2/neu A11 motif peptide, position 889, 10 amino acids] | 0.0003 ratio (IC50 of standard peptide / IC50 of test peptide) |
| MIDSECRPR [HER2/neu A11 motif peptide, position 960, 9 amino acids] | 0.0006 ratio (IC50 of standard peptide / IC50 of test peptide) |
| NIQEFAGCK [HER2/neu A11 motif peptide, position 360, 9 amino acids] | 0.0036 ratio (IC50 of standard peptide / IC50 of test peptide) |
| PSGVKPDLSY (also called HER2/neu 601-610) [HER2/neu A11 motif peptide, position 601, 10 amino acids] | 0.0003 ratio (IC50 of standard peptide / IC50 of test peptide) |
| QVRQVPLQR (also called HER2/neu 90-98) [HER2/neu A11 motif peptide, position 90, 9 amino acids] | 0.0005 ratio (IC50 of standard peptide / IC50 of test peptide) |
| PAGATLERPK (also called HER2/neu 1162-1171) [HER2/neu A11 motif peptide, position 1162, 10 amino acids] | -0.0002 ratio (IC50 of standard peptide / IC50 of test peptide) |
| PLQRLRIVR [HER2/neu A11 motif peptide, position 95, 9 amino acids] | 0.0001 ratio (IC50 of standard peptide / IC50 of test peptide) |
| PLPSETDGY (also called HER2/neu 1119-1127) [HER2/neu A11 motif peptide, position 1119, 9 amino acids] | 0.0002 ratio (IC50 of standard peptide / IC50 of test peptide) |
| QALLHTANR (also called HER2/neu 491-499) [HER2/neu A11 motif peptide, position 491, 9 amino acids] | 0.001 ratio (IC50 of standard peptide / IC50 of test peptide) |
| PTHDPSPLQR (also called HER2/neu 1102-1111) [HER2/neu A11 motif peptide, position 1102, 10 amino acids] | 0.0001 ratio (IC50 of standard peptide / IC50 of test peptide) |

These binders were tested against HLA-A*0301 (human) (assay: inhibition of 125I probe peptide binding to purified HLA).

| Binder | IC50 [nM] |
| --- | --- |
| RTVCAGGCAR (synthetic peptide) [Her2/neu.217] | 1620 |
| B21 | 100 |

The binders below were run against HLA-A*3101 (human) in the same assay as above.

| Binder | IC50 [nM] |
| --- | --- |
| RTVCAGGCAR (synthetic peptide) [Her2/neu.217] | 40 |
| B21 | 13 |

Each binder was assayed against HLA-A*6801 (human) in the same assay as above.

| Binder | IC50 [nM] |
| --- | --- |
| RTVCAGGCAR (synthetic peptide) [Her2/neu.217] | 320 |
| B21 | 4 |

Each binder was assayed against HLA-A*1101 (human) (assay: competitive inhibition of 125I-labeled probe peptide binding to purified HLA-A*1101, gel filtration).

| Binder | relative binding ratio |
| --- | --- |
| CTGTDMKLR [HER2/neu peptide, position 26, 9 amino acids] | 0.0005 ratio (IC50 of standard peptide / IC50 of test peptide) |
| ASPLDSTFY [HER2/neu peptide, position 997, 9 amino acids] | 0.0004 ratio (IC50 of standard peptide / IC50 of test peptide) |
| CAGGCARCK [HER2/neu peptide, position 220, 9 amino acids] | -0.0002 ratio (IC50 of standard peptide / IC50 of test peptide) |
| DSECRPRFR [HER2/neu peptide, position 962, 9 amino acids] | -0.0002 ratio (IC50 of standard peptide / IC50 of test peptide) |
| CAAGCTGPK [HER2/neu peptide, position 240, 9 amino acids] | 0.0021 ratio (IC50 of standard peptide / IC50 of test peptide) |
| DVRPQPPSPR [HER2/neu peptide, position 1144, 10 amino acids] | 0.0001 ratio (IC50 of standard peptide / IC50 of test peptide) |
| DLAARNVLVK [HER2/neu peptide, position 845, 10 amino acids] | 0.0007 ratio (IC50 of standard peptide / IC50 of test peptide) |
| CVNCSQFLR (also called Her2/neu.528) [HER2/neu peptide, position 528, 9 amino acids] | 0.031 ratio (IC50 of standard peptide / IC50 of test peptide) |
| CLLDHVRENR [HER2/neu peptide, position 805, 10 amino acids] | 0.0001 ratio (IC50 of standard peptide / IC50 of test peptide) |
| CVTACPYNY [HER2/neu peptide, position 295, 9 amino acids] | 0.0004 ratio (IC50 of standard peptide / IC50 of test peptide) |
| CSKPCARVCY [HER2/neu peptide, position 334, 10 amino acids] | 0.0002 ratio (IC50 of standard peptide / IC50 of test peptide) |
| CSPMCKGSR [HER2/neu peptide, position 195, 9 amino acids] | -0.0001 ratio (IC50 of standard peptide / IC50 of test peptide) |
| DLSYMPIWK [HER2/neu peptide, position 607, 9 amino acids] | 0.01 ratio (IC50 of standard peptide / IC50 of test peptide) |
| CVARCPSGVK [HER2/neu peptide, position 596, 10 amino acids] | 0.0042 ratio (IC50 of standard peptide / IC50 of test peptide) |
